± gives the standard deviation of the averaged measurements.
Assay: total protein half-life in vivo (active degradation + dilution); higher = more stable protein
[1] = E. coli NCM3722 delta-clpP delta-lon delta-hslV, growth: N-lim chemostat, doubling time 6 h
[2] = E. coli NCM3722 delta-clpP, growth: N-lim chemostat, doubling time 6 h
[3] = E. coli NCM3722 delta-hslV, growth: N-lim chemostat, doubling time 6 h
[4] = E. coli NCM3722 delta-lon, growth: N-lim chemostat, doubling time 6 h
[5] = E. coli NCM3722 delta-smpB, growth: N-lim chemostat, doubling time 6 h
[6] = wild type E. coli NCM3722, growth: C-lim chemostat, doubling time 3 h
[7] = wild type E. coli NCM3722, growth: C-lim chemostat, doubling time 6 h
[8] = wild type E. coli NCM3722, growth: C-lim chemostat, doubling time 12 h
[9] = wild type E. coli NCM3722, growth: N-lim chemostat, doubling time 6 h
[10] = wild type E. coli NCM3722, growth: N-lim chemostat, doubling time 12 h
[11] = wild type E. coli NCM3722, growth: P-lim chemostat, doubling time 6 h
[12] = wild type E. coli NCM3722, growth: P-lim chemostat, doubling time 12 h

Sequence | total protein half-life in vivo [1] [h] | total protein half-life in vivo [2] [h] | total protein half-life in vivo [3] [h] | total protein half-life in vivo [4] [h] | total protein half-life in vivo [5] [h] | total protein half-life in vivo [6] [h] | total protein half-life in vivo [7] [h] | total protein half-life in vivo [8] [h] | total protein half-life in vivo [9] [h] | total protein half-life in vivo [10] [h] | total protein half-life in vivo [11] [h] | total protein half-life in vivo [12] [h]
MMYRIRNWLVATLLLLCTPVGAATLSDIQVSNGNQQARITLSFIGDPDYAFSHQSKRTVALDIKQTGVIQGLPLLFSGNNLVKAIRSGTPKDAQTLRLVVDLTENGKTEAVKRQNGSNYTVVFTINADVPPPPPPPPVVAKRVETPAVVAPRVSEPARNPFKTESNRTTGVISSNTVTRPAARATANTGDKIIIAIDAGHGGQDPGAIGPGGTREKNVTIAIARKLRTLLNDDPMFKGVLTRDGDYFISVMGRSDVARKQNANFLVSIHADAAPNRSATGASVWVLSNRRANSEMASWLEQHEKQSELLGGAGDVLANSQSDPYLSQAVLDLQFGHSQRVGYDVATSMISQLQRIGEIHKRRPEHASLGVLRSPDIPSVLVETGFISNNSEERLLASDDYQQQLAEAIYKGLRNYFLAHPMQSAPQGATAQTASTVTTPDRTLPN | 2.15 ± 0.036 | 2.05 ± 0.41 | 2.71 ± 1.6 | 1.97 ± 0.085 | 1.74 ± 0.34 | 1.64 ± 0.18 | 2.63 ± 0.23 | 4.87 ± 1.5 | 2.54 ± 0.74 | 2.65 ± 0.31 | 3.4 ± 3.2 | 2.92 ± 1.1
MNAKIIASLAFTSMFSLSTLLSPAHAEEQEKALNFGIISTESQQNLKPQWTPFLQDMEKKLGVKVNAFFAPDYAGIIQGMRFNKVDIAWYGNLSAMEAVDRANGQVFAQTVAADGSPGYWSVLIVNKDSPINNLNDLLAKRKDLTFGNGDPNSTSGFLVPGYYVFAKNNISASDFKRTVNAGHETNALAVANKQVDVATNNTENLDKLKTSAPEKLKELKVIWKSPLIPGDPIVWRKNLSETTKDKIYDFFMNYGKTPEEKAVLERLGWAPFRASSDLQLVPIRQLALFKEMQGVKSNKGLNEQDKLAKTTEIQAQLDDLDRLNNALSAMSSVSKAVQ | – | – | – | – | – | – | – | – | – | – | 1.02 ± 0.21 | 2.63 ± 1.1
MNAPFTYSSPTLSVEALKHSIAYKLMFTIGKDPVVANKHEWLNATLFAVRDRLVERWLRSNRAQLSQETRQVYYLSMEFLIGRTLSNAMLSLGIYEDVQGALEAMGLNLEELIDEENDPGLGNGGLGRLAACFLDSLATLGLPGRGYGIRYDYGMFKQNIVNGSQKESPDYWLEYGNPWEFKRHNTRYKVRFGGRIQQEGKKTRWIETEEILGVAYDQIIPGYDTDATNTLRLWSAQASSEINLGKFNQGDYFAAVEDKNHSENVSRVLYPDDSTYSGRELRLRQEYFLVSSTIQDILSRHYQLHKTYDNLADKIAIHLNDTHPVLSIPEMMRLLIDEHQFSWDDAFEVCCQVFSYTNHTLMSEALETWPVDMLGKILPRHLQIIFEINDYFLKTLQEQYPNDTDLLGRASIIDESNGRRVRMAWLAVVVSHKVNGVSELHSNLMVQSLFADFAKIFPGRFTNVTNGVTPRRWLAVANPSLSAVLDEHLGRNWRTDLSLLNELQQHCDFPMVNHAVHQAKLENKKRLAEYIAQQLNVVVNPKALFDVQIKRIHEYKRQLMNVLHVITRYNRIKADPDAKWVPRVNIFGGKAASAYYMAKHIIHLINDVAKVINNDPQIGDKLKVVFIPNYSVSLAQLIIPAADLSEQISLAGTEASGTSNMKFALNGALTIGTLDGANVEMLDHVGADNIFIFGNTAEEVEELRRQGYKPREYYEKDEELHQVLTQIGSGVFSPEDPGRYRDLVDSLINFGDHYQVLADYRSYVDCQDKVDELYELQEEWTAKAMLNIANMGYFSSDRTIKEYADHIWHIDPVRL [P0AC86] | 6.11 ± 0.49 | 5.45 ± 0.2 | 5.71 ± 0.2 | 5.65 ± 0.26 | 5.54 ± 0.24 | 3.18 ± 0.28 | 5.27 ± 0.13 | 10.1 ± 0.57 | 5.448 ± 0.0098 | 10.1 ± 0.65 | 6.01 ± 0.15 | 11.9 ± 1
MNAVTVNDDGLVLRLYIQPKASRDSIVGLHGDEVKVAITAPPVDGQANSHLVKFLGKQFRVAKSQVVIEKGELGRHKQIKIINPQQIPPEIAALIN | 5.38 ± 0.38 | 4 ± 0.27 | 4.49 | 5.14 | 4.22 | 2.88 ± 0.76 | 5.35 | 8.02 | 3.58 | 6.29 ± 0.45 | 4.68 ± 0.4 | 8.89 ± 0.44
MNDLFSLAGKNILITGSAQGIGFLLATGLGKYGAQIIINDITAERAELAVEKLHQEGIQAVAAPFNVTHKHEIDAAVEHIEKDIGPIDVLVNNAGIQRRHPFTEFPEQEWNDVIAVNQTAVFLVSQAVTRHMVERKAGKVINICSMQSELGRDTITPYAASKGAVKMLTRGMCVELARHNIQVNGIAPGYFKTEMTKALVEDEAFTAWLCKRTPAARWGDPQELIGAAVFLSSKASDFVNGHLLFVDGGMLVAV [P0A9P9] | 7.23 | 3.69 | 2.75 | – | 2.46 | 2.53 ± 0.38 | 4.78 ± 0.49 | 7.912 ± 0.017 | 3.01 | – | 4.98 ± 0.91 | 6.82 ± 0.6
MNDTSFENCIKCTVCTTACPVSRVNPGYPGPKQAGPDGERLRLKDGALYDEALKYCINCKRCEVACPSDVKIGDIIQRARAKYDTTRPSLRNFVLSHTDLMGSVSTPFAPIVNTATSLKPVRQLLDAALKIDHRRTLPKYSFGTFRRWYRSVAAQQAQYKDQVAFFHGCFVNYNHPQLGKDLIKVLNAMGTGVQLLSKEKCCGVPLIANGFTDKARKQAITNVESIREAVGVKGIPVIATSSTCTFALRDEYPEVLNVDNKGLRDHIELATRWLWRKLDEGKTLPLKPLPLKVVYHTPCHMEKMGWTLYTLELLRNIPGLELTVLDSQCCGIAGTYGFKKENYPTSQAIGAPLFRQIEESGADLVVTDCETCKWQIEMSTSLRCEHPITLLAQALA [P0A996] | 6.38 | – | – | – | – | – | – | – | – | – | – | –
MNEFFPLASAAGMTVGLAVCALIVGLALAMFFAVWESAKWRPVAWAGSALVTILRGLPEILVVLFIYFGSSQLLLTLSDGFTINLGFVQIPVQMDIENFDVSPFLCGVIALSLLYAAYASQTLRGALKAVPVGQWESGQALGLSKSAIFFRLVMPQMWRHALPGLGNQWLVLLKDTALVSLISVNDLMLQTKSIATRTQEPFTWYIVAAAIYLVITLLSQYILKRIDLRATRFERRPS [P0AE34] | 7.86 | 6.25 | 6.66 ± 0.82 | 6.45 | – | 2.92 ± 0.51 | 6.02 ± 0.79 | 11.9 ± 0.15 | – | 11.5 ± 2.6 | 6.78 | 12.3 ± 0.57
